Literature values, collected in patent publication US20100216667A1, “METHOD FOR DETERMINING COMPATIBILITY OF AN ACTIVE PHARMACEUTICAL INGREDIENT WITH MATERIALS” (priority 2008, published 2010).

Settings: pre-filled syringes with uncoated stoppers and Polysorbate-80

EPREX: marketed product whose active ingredient is erythropoietin
Pure red cell aplasia (PRCA) in treated patients: increase in pure red cell aplasia (PRCA)
